The results in this text go back to publication PMC7769458, “In vitro and in vivo characterization of Recifercept, a soluble fibroblast growth factor receptor 3, as treatment for achondroplasia” (PLoS ONE, 2020).

Holding throughout (conditions): both partners purified
One test addresses T1, human FGF16 (human, UniProt O43320 1-207).
T1 construct: fibroblast growth factor 16, human, recombinant; also called hFGF16; source: recombinant
Nature of the test: SPR; Biacore T200; Recifercept amine-coupled on a CM5 chip (about 400 RU); hFGF injected in HBS-EP (0.01 M HEPES, 0.15 M NaCl, 3 mM EDTA, 0.05% polysorbate 20, pH 7.4) at 50 ul/min; single cycle kinetics, 5 concentrations from 0 to 16 nM; global 1:1 fit; triplicate.

The target of a further test is T2, human FGF1 (human, UniProt P05230 16-155).
T2 construct: fibroblast growth factor 1, human, recombinant; also called hFGF1; source: recombinant; bought: Peprotech for the cell assays
T2 sequence (P05230 16-155): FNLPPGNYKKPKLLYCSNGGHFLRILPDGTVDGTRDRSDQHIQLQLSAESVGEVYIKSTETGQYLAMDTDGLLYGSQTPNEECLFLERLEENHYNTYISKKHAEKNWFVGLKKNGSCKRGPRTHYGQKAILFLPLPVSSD
The description is as above.

The next test has as its target human FGF9 (human, UniProt P31371 4-208). The test is described as above.
Another test has as its target T3, human FGF2 (human, UniProt P09038 143-288).
T3 construct: fibroblast growth factor 2, human, recombinant; also called hFGF2; source: recombinant; bought: Peprotech for the cell assays
The description is as above.

The next test has as its target T4, human FGF20 (human, UniProt Q9NP95 1-211).
T4 construct: fibroblast growth factor 20, human, recombinant; also called hFGF20; source: recombinant
The description is as above.

The target of a further test is human FGF8 (human, UniProt P55075 23-233, Isoform, supplier and limits are not printed. Assumed the FGF8b isoform (mature 23-215), the usual commercial recombinant form and the one that binds FGFR3c; the P55075 canonical sequence is FGF8e. Th). In words: SPR; as a1 (Recifercept amine-coupled on a CM5 chip, hFGF in HBS-EP, single cycle kinetics, 0 to 16 nM, 1:1 fit, triplicate) but with 16 nM heparin in each tested concentration (FGF8 subfamily).

For another test, the target named is T5, human FGF18 (human, UniProt O76093 28-207).
T5 construct: fibroblast growth factor 18, human, recombinant; also called hFGF18; source: recombinant
T5 sequence (looked up): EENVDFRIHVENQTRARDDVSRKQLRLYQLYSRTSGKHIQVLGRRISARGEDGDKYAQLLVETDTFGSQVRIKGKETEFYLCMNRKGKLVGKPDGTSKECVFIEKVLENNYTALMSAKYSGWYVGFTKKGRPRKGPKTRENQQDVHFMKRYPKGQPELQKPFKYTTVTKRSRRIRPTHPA
The test is described as above.

The next test concerns the target T6, human FGF17 (human, UniProt O60258 23-216).
T6 construct: fibroblast growth factor 17, human, recombinant; also called hFGF17; source: recombinant
T6 sequence (looked up): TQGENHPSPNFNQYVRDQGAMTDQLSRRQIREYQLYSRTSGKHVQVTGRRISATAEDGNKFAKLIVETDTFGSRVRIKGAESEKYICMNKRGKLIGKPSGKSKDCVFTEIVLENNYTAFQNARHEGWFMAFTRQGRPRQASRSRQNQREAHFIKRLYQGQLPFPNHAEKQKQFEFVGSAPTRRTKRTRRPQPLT
Described as above.

T4 sequence (Q9NP95 whole entry): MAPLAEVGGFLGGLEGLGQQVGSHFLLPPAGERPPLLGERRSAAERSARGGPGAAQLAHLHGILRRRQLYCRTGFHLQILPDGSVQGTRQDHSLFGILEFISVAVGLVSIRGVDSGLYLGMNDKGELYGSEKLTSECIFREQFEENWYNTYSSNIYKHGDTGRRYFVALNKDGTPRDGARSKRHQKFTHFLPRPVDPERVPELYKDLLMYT
T3 sequence (P09038 143-288): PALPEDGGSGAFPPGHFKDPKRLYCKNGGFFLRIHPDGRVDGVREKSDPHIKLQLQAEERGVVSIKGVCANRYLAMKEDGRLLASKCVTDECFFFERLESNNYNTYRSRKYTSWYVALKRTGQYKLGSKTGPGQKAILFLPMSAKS

B1: Recifercept (receptor)
chain: ESLGTEQRVVGRAAEVPGPEPGQQEQLVFGSGDAVELSCPPPGGGPMGPTVWVKDGTGLVPSERVLVGPQRLQVLNASHEDSGAYSCRQRLTQRVLCHFSVRVTDAPSSGDDEDGEDEAEDTGVDTGAPYWTRPERMDKKLLAVPAANTVRFRCPAAGNPTPSISWLKNGREFRGEHRIGGIKLRHQQWSLVMESVVPSDRGNYTCVVENKFGSIRQTYTLDVLERSPHRPILQAGLPANQTAVLGSDVEFHCKVYSDAQPHIQWLKHVEVNGSKVGPDGTPYVTVLKTAGANTTDKELEVLSLHNVTFEDAGEYTCLAGNSIGFSHHSAWLVVLPVSLESNASMSSNT
notes: extracellular domain of human FGFR3 (P22607); also called soluble fibroblast growth factor receptor 3; modified soluble recombinant human FGFR3; source: GPEX CHO cell line, 50L single use bioreactor, media filtered, purified using chromatography
As for B1, the Kd was found to be 0.94 nM with human FGF16; 0.74 nM in the test with human FGF1; 0.75 nM in the test with human FGF9; 3.4 nM in the test with human FGF2; 7.1 nM with human FGF20; 4.28 nM with human FGF8. The figures for the Kd in the test with human FGF18 and with human FGF17 were 4.17 nM and 2.73 nM, respectively. Moreover, the koff with human FGF16 was 0.00253 s⁻¹; in the test with human FGF1 it was 0.000904 s⁻¹; with human FGF9 it was 0.00133 s⁻¹; with human FGF2 it was 0.000898 s⁻¹; with human FGF20 it was 0.000548 s⁻¹; with human FGF8 it was 0.000705 s⁻¹. For the same molecule, the koff in the test with human FGF18 was 0.00105 s⁻¹; in the test with human FGF17, 0.000964 s⁻¹. The kon in the test with human FGF16 was 2.8e+06 M⁻¹ s⁻¹; in the test with human FGF1 it was 1.33e+06 M⁻¹ s⁻¹; with human FGF9 it was 1.83e+06 M⁻¹ s⁻¹; with human FGF2, 279000 M⁻¹ s⁻¹; with human FGF20, 123000 M⁻¹ s⁻¹; with human FGF8, 171000 M⁻¹ s⁻¹. In addition, the kon with human FGF18 worked out at 270000 M⁻¹ s⁻¹; with human FGF17, 390000 M⁻¹ s⁻¹.
